Assay results taken from paper PMC4361737 (The Journal of investigative dermatology, 2013).

B1: AMACO P2 (domain or fragment)
chain: SSSALCTTADPDCRVEPHPCERRTLETVRELAGNALCWRGSRQADTVLALPCPFYSWKRVFQTHPANCYRTICPGPCDSQPCQNGGTCIPEGVDRYHCLCPLAFGGEVNCAPKLSLECRIDVLFLLDSSAGTTLGGFRRAKAFVKRFVQAVLREDSRARVGIASYGRNLMVAVPVGEYQHVPDLIRSLDSIPFSGGPTLTGSALLQVAEHGFGSASRTGQDRPRRVVVLLTESRSQDEVSGPAAHARARELLLLGVGSEILQAELVKITGSPKHVMVHTDPQDLFSQIPELQRRL
modifications: two unusual glycan chains
B2: Fras1 CSPG (domain or fragment)
chain: TPSLHVNGSLTLGIGSMKPLDFSLLNIQHQDGRVEDLLFHVVSTPTNGQLLLSRNGKEVQLEKAGHFSWKDVNEKKVRFVHSKEKLRKGYFSLKISDQQFFSEPQLINIQAFSTQAPYVLRNEVLHVSKGERATITTQLLDIRDDDNPQDVVVNVLDPPLHGQLLQMPPAPAASIYQFHLDELSRGLLLYAHDGSDSTSDIIVFQANDGHSFQNILFHVKNIPKNDRALRLVTNSMVWVPEGGMLKITNRILKAQAPGVRADDIIYKITHSRPQFGEVVLLMNLPADSPAGPAEEGHHLPDGRMATPISTFTQQDIDDGVVWYRHLGAPTQSDSFRFQVSSATSAQEHLESHMFNIAILPQAPEAPKLSLGTSLHMTAREDGLSVIQPQSLSFVKAESPSGKIIYNITVPLHPNQGIIEHRDRPHSPIQYFTQEDINQGQIMYRPPVAPPHLQEIMAFSFAGLPESVKFYFTVSDGQHTSPEMALTIHLLHSDLQPPAFQVKAPLLEVSPGGRTSLGLQLLVRDAQVVPEELFFQLQKSPQHGMLVKYTAKSSVTMAAGDTFTYDEVERNVLQYVHDGSSAWEDSLEISVTDGLTVTTSEVKVEVSPSENRGPRLAPGSSLSMTVASQHTAIITRSHLAYVDDSSSDPEIWIRLSSLPLYGVLFRSSGPDMDELSGDSNFTMEDINKKNIRYSAVFETDGHSVTDGFHFSVSDMDGNHVDNQVFTITVTPAENPPHIIAFADLITVDEGGRAPLSLHHFFATEDQDNLQDDAVIKLSALPKYGCIENTGTGDRFGPGANSELEASFPIQDVLENYIYYFQSVHESIEPTHDVFSFYVSDGSGRSEIHSINITIERKNDEPPRMTLRPLGVRLSSGVAISNSSLSLQDLDTPDNELIFVLMKKPDHGHLLRRSTASDPLENGTVLDQGSSFTYQDVLAGLVGYLPGDIYMAVDEFRFSLTDGLHVDTGRMEIYIELPSTNIPHLAINRGLQLSAGSVARITEQHLKATDTDSEAGQVVYIMKEDPGAGRLLMAKADNLEQISVRGPIRSFTQADVSQGQIEYSHGPGEPGGSFAFKFDVVDGEGNKLADQSFSIGVLEDKSPPVVITNRGLVLDENSVEKITTAQLSATDQDSKPTELIYRITTQPQLGHLEHVASPGIQISSFTQADLASRNVQYVRSSGTGKQSDAFSFVLSDGLHEVTQTFPITIHPVDDARPLVQNRGMRVQEGVRKTITEFELKAVDVDTEAESITFTIVQPPRHGTIERTARGQRFHQTSSFTMEDIYQNRVSYSHDGSNSLKDRFTFTVSDGTNPFFIIEEGGEEIMTAAPQQFHVDILPVDDGTPRIVTNLGLQWLEYMDGKATNLITKKELLTVDPDTEDSQLIYEVTTGPMHGYLENKLQPGRAAATFTQEHVNLGLIRYVLYEEKIQKVMDSFQFLVKDSKPNV

Legend:
Fras1 CSPG = biological target: B2; experiment: SPR
AMACO P2 = biological target: B1; experiment: SPR

Binder | Kd (Fras1 CSPG) | Kd (AMACO P2)
B1 | 0.151 µM | –
B2 | – | 0.042 µM
